Results from publication PMC6892545.

Target: Ulp1^403-621-C580S, on CNBr-activated resin (S. cerevisiae) (UniProt Q02724)
Test: pull-down; Ulp1^403-621-C580S on CNBr-activated resin incubated with yeast whole cell extract, 2 h at 4 °C, PBSN buffer; anti-Smt3 Western blot

Chain of UniProt Q02724 (Q02724 403-621 C580S): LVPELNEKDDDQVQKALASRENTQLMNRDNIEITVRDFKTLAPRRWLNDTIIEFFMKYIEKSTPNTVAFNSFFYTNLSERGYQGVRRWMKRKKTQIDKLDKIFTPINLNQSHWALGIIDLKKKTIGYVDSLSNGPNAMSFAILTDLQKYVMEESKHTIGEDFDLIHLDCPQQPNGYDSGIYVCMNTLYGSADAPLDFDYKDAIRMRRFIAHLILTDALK

percent of SUMO conjugates recovered on the resin: 50%
Substance: Smt3 (yeast SUMO), as endogenous SUMO conjugates in yeast cell extract (from UniProt Q12306 1-101) (natural protein)
